Literature values, collected in paper PMC12188314.

Target: Rab27A (Mus musculus) (UniProt Q9ERI2)
UniProt Q9ERI2, sequence (Q9ERI2 2-221): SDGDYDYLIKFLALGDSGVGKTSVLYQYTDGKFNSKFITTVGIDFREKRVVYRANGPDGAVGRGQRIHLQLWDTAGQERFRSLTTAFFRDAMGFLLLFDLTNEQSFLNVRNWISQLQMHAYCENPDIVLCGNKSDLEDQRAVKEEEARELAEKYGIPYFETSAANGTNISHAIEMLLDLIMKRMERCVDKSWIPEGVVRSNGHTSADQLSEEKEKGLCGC

Kd: 0.013 µM
Substance: Slp2-a SHD (from UniProt Q99N50)
